Consider four molecules from PMC1802081.

Where a chain is given by its changes, count along the chain named. Names and notes keep the numbering of the source.

Targets include BMP-2 L100K; BMP-2 S85R; BMP-2 N102D; BMP-2 S85R/A86P; BMP-2 A86P.
Holding throughout (assay): SPR; BIACORE 2000; biotinylated ligand on a streptavidin-modified CM5 chip (about 200 RU); receptor ectodomain as analyte at 1, 2, 3, 5, 10, 20 and 50 uM; HBS500 (10 mM HEPES pH 7.4, 500 mM NaCl, 3.4 mM EDTA, 0.005% P20); apparent KD from the dose dependence of equilibrium binding
For orientation: In SPR one partner is held on a chip, and binding of the other changes the refractive index at the surface.

Assay [1] has as its target BMP-2 variant L100K/N102D.

B1: ActR-IIBECD wildtype (activin type IIB receptor ectodomain) (receptor)
chain: SGRGEAETRECIYYNANWELERTNQSGLERCEGEQDKRLHCYASWRNSSGTIELVKKGCWLDDFNCYDRQECVATEENPQVYFCCCEGNFCNERFTHLPEPGGPEVTYEPPPTAPTLLT
For the molecule B1, the rel. KD (against wildtype BMP-2 from E. coli with the same receptor) worked out at 0.15 fold with BMP-2 L100K; 1.3 fold with BMP-2 S85R; 7.8 fold in the assay with BMP-2 N102D; 1.4 fold with BMP-2 S85R/A86P; 2.6 fold in the assay with BMP-2 A86P. Further, in assay [1], the Kd was found to be 0.14 µM.

B2: ActR-IIBECD L61P (receptor)
chain: B1 chain with L61P
As for B2, in assay [1], the Kd worked out at 160 µM.

B3: ActR-IIBECD L61A (receptor)
chain: B1 chain with L61A
On to B3, for which the Kd in assay [1] was determined as 14 µM.

B4: BMPR-II receptor ectodomain (receptor)
chain: SQNQERLCAFKDPYQQDLGIGESRISHENGTILCSKGSTCYGLWEKSKGDINLVKQGCWSHIGDPQECHYEECVVTTTPPSIQNGTYRFCCCSTDLCNVNFTENFPPPDTTPLSPPHSFNRDET
In the case of B4, the rel. KD (against wildtype BMP-2 from E. coli with the same receptor) in the assay with BMP-2 L100K was found to be 1.3 fold; with BMP-2 S85R it was 0.12 fold; with BMP-2 N102D, 0.96 fold; in assay [1], 0.92 fold; in the assay with BMP-2 S85R/A86P it was 0.19 fold; with BMP-2 A86P it was 0.5 fold.
